Assay results published in patent US20170312350A1 (published 2017).

Assays:
[1] = biological target: T1, IGF2BP3-001 A9 (alanine-substitution variant of IGF2BP3-001) peptide on HLA-A*02, assumed (human); assay: cytokine release
T1 peptide: KIQEILTQA

[2] = biological target: T2, IGF2BP3-001 A8 (alanine-substitution variant of IGF2BP3-001) peptide on HLA-A*02, assumed (human); assay: cytokine release
T2 peptide: KIQEILTAV

[3] = biological target: T3, IGF2BP3-001 A2 (alanine-substitution variant of IGF2BP3-001) peptide on HLA-A*02, assumed (human); assay: cytokine release
T3 peptide: KAQEILTQV

[4] = biological target: T4, IGF2BP3 (IGF2BP3-001) peptide on HLA-A2 (human); assay: Target peptide titration on loaded target cells, IFN-gamma release; RNA-electroporated primary CD8+ T cells; full-length, on cells
T4 peptide: KIQEILTQV

binding result [1]: recognises | binding result [2]: recognises | binding result [3]: recognises | EC50 of peptide [4]: ~1 nM
B1: TCR R10P1A7 (TCR, V domains shown)
Valpha: GEDVEQSLFLSVREGDSSVINCTYTDSSSTYLYWYKQEPGAGLQLLTYIFSNMDMKQDQRLTVLLNKKDKHLSLRIADTQTGDSAIYFCAESKETRLMFGDGTQLVVKP
Vbeta: GAVVSQHPSWVICKSGTSVKIECRSLDFQATTMFWYRQFPKQSLMLMATSNEGSKATYEQGVEKDKFLINHASLTLSTLTVTSAHPEDSSFYICSARAGGHEQFFGPGTRLTVL
